According to PMC10901488 (Chemical Science, 2024):

Assays:
Solubilization test = type: physicochemical; settings: model peptides before tagging, or product after reaction with Mal-(EK)3
[1] = due to its hydrophobicity; cited from earlier work

Substance | solubility (in words) (Solubilization test) | solubility [1]
1: C-terminal segment of IL-2 (residue 105–133) (CEYADETATIVEFLNRWITFCQSIISTLT; UniProt P60568 125-153, looked up, fragment) [compound 1] | poor solubility | –
insulin A chain: insulin A chain | – | poor solubility
